Measurements taken from publication PMC8682759.

B1: AcP-TRap4 (structured_RNA)
RNA: GGAUCCAAGCUUGUUUGGCCCAAUUCCUCGUCUUCAGACUGGCCUAGAUAAAUUCGGAGCUUGUUCACAACCUCUACUUCCUGCUUUCGACGGAGAAUUC
B2: AcP-TRap3 (structured_RNA)
RNA: GGAUCCAAGCUUGUUUGGCCCAAUAACGUCGAUUGAUUGUGGCCUAGAUAAAUUCGGAGCUUUCAAUGAAUUACACAACAAUGCUUUCGACGGAGAAUUC
B3: AcP-TRap1 (structured_RNA)
RNA: GGAUCCAAGCUUGUUUGGCUCCAACCGUCCCCGCGUAUAUGGCCUAGAUAAAUUCGGAGCUUUUUGCCCAUCCUCAUAUAUUGCUUUCGACGGAGAAUUC
B4: AcP-TRap2 (structured_RNA)
RNA: GGAUCCAAGCUUGUUUGGCAUUCCACGUCGAUAAAAGAUUGGCCUAGAUAAAUUCGGAGCUUAAAAUUCCCUCCUAUCUUUUGCUUUCGACGGAGAAUUC

Molecular target: beta-actin (monomeric, G-actin) (human, UniProt P60709 2-375)
Assay: fluorescence turn-on of BHQ1 probe; apparent; 10 mM Mg2+, BHQ1 probe; 10 mM Tris-HCl pH 7.6, 100 mM KCl, 10 mM MgCl2 (Kd assays), room temperature; RNA 3 uM with actin 3 uM preincubated 30 min at 25 C, then probe 1 uM (final) in 2

Row | Binder | Kd [nM]
1 | B1 | 200
2 | B2 | 1000
3 | B3 | 1500
4 | B4 | 600
